The text below walks through data of patent publication US20260015426A1 (23ANDME, published 2026).

Assay [1] concerns the target T1, hu-M-IL1RAP construct, positions S21-T367 (extracellular domain of the membrane form of human IL1RAP) (human, UniProt Q9NPH3 21-367).
T1 construct: Biotinylated when captured on the Biacore chip
T1 sequence: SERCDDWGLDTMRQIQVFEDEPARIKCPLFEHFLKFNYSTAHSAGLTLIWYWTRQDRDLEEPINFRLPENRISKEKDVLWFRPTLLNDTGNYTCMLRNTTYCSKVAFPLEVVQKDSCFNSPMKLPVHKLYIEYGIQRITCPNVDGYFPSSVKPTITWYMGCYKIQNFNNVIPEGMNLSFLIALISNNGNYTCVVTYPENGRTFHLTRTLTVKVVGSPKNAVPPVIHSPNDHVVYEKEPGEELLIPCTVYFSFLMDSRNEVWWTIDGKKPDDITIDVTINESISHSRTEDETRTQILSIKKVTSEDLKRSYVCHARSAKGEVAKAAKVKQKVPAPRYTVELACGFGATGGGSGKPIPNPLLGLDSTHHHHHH
The assay is described as follows: SPR, 37 C.
Description: (§1) Surface plasmon resonance (SPR) analysis was used to determine binding affinity for hu-M-IL1RAP of the purified Fabs containing the selected single, double, and triple mutations in either the VL or VH regions using a BIACORE™ 8K instrument. […] For kinetics measurements, 5 nM biotinylated hu-M-IL1RAP was captured at 10 μL/min to achieve ˜50 response units in the second flow cell (FC2). FC1 was kept as a reference. […] The sensorgrams were recorded and subjected to reference and buffer subtraction before data analysis with the BIACORE® 8K Evaluation Software (version 1.1.1.7442). Association rates (kₒₙ) and dissociation rates (koff) were calculated using a simple one-to-one Langmuir binding model. The equilibrium dissociation constant (KD) was calculated as the ratio of koff/kₒₙ.

The target of assay [2] is T2, cyno-M-IL1RAP construct, positions S21-T367 (cynomolgus monkey, UniProt P59822 21-367 (rhesus entry)).
T2 construct: Biotinylated when captured on the Biacore chip; also called cy-M-IL1RAP
T2 sequence: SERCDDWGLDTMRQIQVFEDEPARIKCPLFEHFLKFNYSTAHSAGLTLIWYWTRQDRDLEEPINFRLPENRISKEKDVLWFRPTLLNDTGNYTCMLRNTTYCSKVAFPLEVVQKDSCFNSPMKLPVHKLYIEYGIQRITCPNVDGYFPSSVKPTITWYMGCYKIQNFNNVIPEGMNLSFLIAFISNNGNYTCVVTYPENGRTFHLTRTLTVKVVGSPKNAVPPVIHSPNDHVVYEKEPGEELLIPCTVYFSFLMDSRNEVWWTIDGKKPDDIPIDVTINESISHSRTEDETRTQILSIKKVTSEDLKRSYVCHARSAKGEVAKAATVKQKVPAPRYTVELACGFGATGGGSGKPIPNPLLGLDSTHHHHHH
Put plainly: SPR, 37 C.
Description: as §1

Assay [3] concerns the target T3, human IL1RAP (hu-IL1RAP) on human cells (human, UniProt Q9NPH3 21-570).
T3 sequence: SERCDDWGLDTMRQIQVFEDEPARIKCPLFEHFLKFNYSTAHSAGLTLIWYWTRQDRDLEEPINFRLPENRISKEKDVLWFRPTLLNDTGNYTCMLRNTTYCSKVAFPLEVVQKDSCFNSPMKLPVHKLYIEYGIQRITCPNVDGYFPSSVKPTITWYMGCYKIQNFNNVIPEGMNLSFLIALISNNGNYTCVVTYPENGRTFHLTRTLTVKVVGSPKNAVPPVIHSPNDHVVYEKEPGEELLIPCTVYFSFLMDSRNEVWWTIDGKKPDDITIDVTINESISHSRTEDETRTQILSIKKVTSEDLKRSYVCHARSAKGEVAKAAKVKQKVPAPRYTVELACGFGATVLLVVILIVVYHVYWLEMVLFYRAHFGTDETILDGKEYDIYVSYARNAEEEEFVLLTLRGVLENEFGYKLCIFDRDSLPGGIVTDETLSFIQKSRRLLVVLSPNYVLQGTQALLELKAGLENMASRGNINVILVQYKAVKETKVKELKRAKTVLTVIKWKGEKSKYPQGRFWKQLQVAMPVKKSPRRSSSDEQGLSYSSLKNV
The assay is described as follows: cell-based or functional assay.

The target of assay [4] is T1, hu-M-IL1RAP construct, positions …. The assay is described as follows: SPR, IgG analyte (apparent), 37 C, pH 6.
Description: as §1
For assay [5], the target named is T2, cyno-M-IL1RAP construct, positions …. Put plainly: SPR, IgG analyte (apparent), 37 C, pH 6. Background: Surface plasmon resonance follows binding to a sensor surface in real time, without labels.
Description: as §1
Assay [6] deals with T1, hu-M-IL1RAP construct, positions …. Put plainly: SPR, IgG analyte (apparent), 37 C, pH 7.4.
Description: as §1
In assay [7] the target is T2, cyno-M-IL1RAP construct, positions …. Put plainly: SPR, IgG analyte (apparent), 37 C, pH 7.4.
Description: as §1
In assay [8] the target is T1, hu-M-IL1RAP construct, positions …. Put plainly: SPR, IgG analyte (apparent), pH 7.4, 37 C.
The target in assay [9] is T2, cyno-M-IL1RAP construct, positions …. Put plainly: SPR, IgG analyte (apparent), pH 7.4, 37 C.
The target of assay [10] is T3, human IL1RAP (hu-IL1RAP) on human cells. The assay is described as follows: cell-based or functional assay. This is another data set of the same source.
Assay [11] addresses T1, hu-M-IL1RAP construct, positions …. Put plainly: BLI (OCTET), mAb captured, 25 C.
Description: All samples were placed in black 96-well plates and the experiment was performed at 25° C. […] The biosensors were equilibrated in experimental buffer at 25° C. for ten minutes prior to starting the experiment.
The resulting BLI signal from analyte association and dissociation from the immobilized antibody was analyzed using the Octet Data Analysis software (Pall ForteBio). First, a reference subtraction was performed on all recorded traces using the reference well (biosensor that underwent the same steps as experimental wells but no analyte for the Association step), then all the traces were aligned to the beginning of the Association step.

B1: h11C5 variant K13/H3 IgG (YIS) (antibody)
heavy: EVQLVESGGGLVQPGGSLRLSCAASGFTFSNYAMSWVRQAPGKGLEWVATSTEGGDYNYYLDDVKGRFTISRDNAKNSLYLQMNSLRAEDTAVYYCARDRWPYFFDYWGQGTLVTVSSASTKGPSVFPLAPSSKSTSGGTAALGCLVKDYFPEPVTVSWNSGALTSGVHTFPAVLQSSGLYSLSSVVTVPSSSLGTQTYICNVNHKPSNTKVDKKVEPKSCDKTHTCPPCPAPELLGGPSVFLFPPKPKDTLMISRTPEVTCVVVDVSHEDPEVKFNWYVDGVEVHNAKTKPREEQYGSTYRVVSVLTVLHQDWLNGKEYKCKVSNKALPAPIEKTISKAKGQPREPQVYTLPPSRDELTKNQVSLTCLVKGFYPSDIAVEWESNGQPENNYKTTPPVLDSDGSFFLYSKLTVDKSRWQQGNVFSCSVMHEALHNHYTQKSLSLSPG
light: DIQMTQSPSSLSASVGDRVTITCRASENIYSNLAWYQQKPGKSPKLLVYGYKNLADGVPSRFSGSGSGTDYTLTISSLQPEDFATYYCQHFITTPRTFGGGTKVEIKRTVAAPSVFIFPPSDEQLKSGTASVVCLLNNFYPREAKVQWKVDNALQSGNSQESVTEQDSKDSTYSLSSTLTLSKADYEKHKVYACEVTHQGLSSPVTKSFNRGEC
notes: Human IgG1 N297G; also called 11C5-YIS
B1: in assay [1], the “KD (6)/KD (7.4)” value was determined as 3.3 ratio, the “KD (7.4) ratio to YIS” value was 1 ratio and the “koff (6) ratio to YIS” value amounted to 1 ratio. Besides, in assay [2], the “KD (6)/KD (7.4)” value turned out to be 2.5 ratio, the “KD (7.4) ratio to YIS” value stood at 1 ratio and the “koff (6) ratio to YIS” value was found to be 1 ratio. In [3], the “HEK-Blue, IL-1β, % inhibition at 100 nM (IgG)” value is 100%; the “HEK-Blue, IL-1β, IC50 (IgG)” value was 0.251 nM; the “HEK-Blue, IL-33, % inhibition at 100 nM (IgG)” value came out at 98%; the “HEK-Blue, IL-33, IC50 (IgG)” value came to 0.425 nM. In assay [3], the “HEK-Blue, IL-36α, % inhibition at 100 nM (IgG)” value came out at 100% and the “HEK-Blue, IL-36α, IC50 (IgG)” value was found to be 0.232 nM. For the same molecule, in [4], the Kd worked out at 0.0705 nM; the koff (in general, a measure of how fast the partners let go of each other) turned out to be 0.00015 s⁻¹; the kon (commonly a measure of how fast the partners come together) stood at 2.12e+06 M⁻¹ s⁻¹. For the same molecule, in assay [5], the Kd was 0.0345 nM, the koff was 6.94e-05 s⁻¹ and the kon came out at 2.01e+06 M⁻¹ s⁻¹. Also, in assay [6], the Kd was found to be 0.0213 nM, the koff stood at 3.94e-05 s⁻¹ and the kon came out at 1.85e+06 M⁻¹ s⁻¹. Besides, in assay [7], the Kd was found to be 0.014 nM, the koff was found to be 3e-05 s⁻¹ and the kon was 2.14e+06 M⁻¹ s⁻¹. For the same molecule, in [8], the Kd is 0.013 nM, the koff worked out at 3.33e-05 s⁻¹ and the kon was found to be 2.55e+06 M⁻¹ s⁻¹. Also, in [9], the Kd worked out at 0.0116 nM, the koff came to 3.34e-05 s⁻¹ and the kon was found to be 2.87e+06 M⁻¹ s⁻¹.

B2: c11C5_C59Y (C59Y variant of c11C5) (antibody, IgG1, V domains shown)
VH: EVQLVESGGGLVKPGGSLKLSCAASGFTFSNYAMSWVRQTPEKRLEWVATVTEGGDYNYYLDDVKGRFTISRDNANDNLYLQMSHLKSEDSARYYCARDRWPYFFDYWGQGTTLTVSS
VL: DIQMTQSPASLSVSVGETVTITCRASENIYSNLAWYQQKQGRSPQLLVYGAKNLADGVPSRFSGSGSGTQYSLNINSLQSEDFGTYYCQHFWTTPRTFGGGTKLEIK
notes: Murine VL and VH, human CL and IgG1 CH1-CH3 domains with effectorless N297G
Turning to B2, in [10], the “NK cells, IL-33+IL-12 stimulated IFN-γ, IC50” value came to 2.9 nM; the “PHLF, IL-1α stimulated IL-8, IC50” value was 3.96 nM; the “PHLF, IL-36β stimulated IL-8, IC50” value was found to be 0.284 nM; the “monocytes, IL-1β stimulated IL-6, IC50” value was found to be 0.733 nM. The molecule further returned a Kd in assay [11] of 0.446 nM.
